Source: patent US20240269196A1, “RESPIRATORY TREATMENTS USING SALMONID OIL COMPOSITIONS” (Hofseth Biocare ASA, priority 2020, published 2024)

Tests used:
[1] = test system: allergic human eosinophils; test: Apoptosis assay (Annexin V-FITC, flow cytometry); format: cell-based; settings: Example 1; 3 μg/mL ApoA-IV; 18 hr incubation; IL-5 50 pM
Description: (§1) The allergic human eosinophils were placed in RPMI 1640 medium supplemented with IL-5 (50 pM), 1% FBS and PenStrep in the presence of 3 μg/mL ApoA-IV (positive control), 100 μg/mL SO, and formulation vehicle (negative control). Aliquots were removed after 18 hr incubation, washed twice in PBS, and resuspended in binding buffer. The eosinophil cells were stained using the Annexin V-FITC Apoptosis Detection Kit I, (Sigma Aldrich) and immediately analyzed by flow cytometry. Each sample was acquired for 1 min, and the total number of eosinophils gated on a forward scatter/side scatter plot and the percentage of live cells (annexin Vneg) and apoptotic cells (annexin Vpos) was recorded.
as §1, with “of” for “of 3 μg/mL ApoA-IV (positive control),”, “SO, heat, acid and base treated SO, krill oil, standard 18/12 fish oil,” for “SO,”, “Aliquots were removed after 18 hr incubation, washed twice in PBS, and resuspended in binding buffer.” left out, “recorded. […]” for “recorded.”

[2] = test system: House Dust Mite (HDM) extract-induced murine asthma model; test: House Dust Mite (HDM) extract-induced murine asthma model: BAL fluid and spleen cellularity; format: in vivo, mice; settings: 5 μg/animal, day 7 to day 14, N=5; for Percent eosinophil in spleen tissue (Mean): spleen on day 15
Description: For this purpose, normal saline (NS) was used as a vehicle control and Apolipoprotein A-IV (ApoA-IV) was used as a positive control, respectively. The study involved induction of asthmatic condition in mice using HDM extract and simultaneous evaluation of the effects of OmeGo Salmon oil (CARDIO softgels; 20 or 60 μg/animal) and ApoA-IV (5 μg/animal; as a positive control) on cosinophil modulation in mice.
On day 1, all 20 mice were anesthetized and sensitized intranasally with 1 μg HDM protein in 40 μL PBS. From day 7 to day 11, all 20 mice were challenged by daily intranasal application of 10 μg HDM protein in 40 μL PBS. Mice were randomly divided into four groups with five mice in each group for differential treatment from day 7 to day 14. From day 7 to day 14, each animal in the first group (G1) received 100 μL NS; each animal in the second group (G2) received 20 μg CARDIO in 100 μL NS; each animal in the third group (G3) received 60 μg CARDIO in 100 μL NS; and each animal in the fourth group (G4) received 5 μg ApoA-IV in 100 μL NS.
The Broncho-Alveolar Lavage (BAL) fluid and spleen were collected from all 20 mice on day 15, and cellularity of the collected samples were analyzed by flow cytometry.

[3] = test system: eosinophils in healthy donor PMNL samples; test: Shape change assay: CCL11-stimulated eosinophil shape change in PMNL, flow cytometry (FSC); format: cell-based, human; settings: Example 1, 3 μg/mL ApoA-IV pretreatment 30 min
Description: (§2) PMNL samples were pretreated with 3 μg/mL ApoA-IV (positive control), 100 μg/mL SO, and formulation vehicle (negative control) for 30 minutes and stimulated with serial dilutions of CCL11 for 20 minutes at 37° C. Shape change was monitored by flow cytometry as the increase of forward scatter (FSC) and was expressed as percent of the vehicle response. Note, eosinophils are distinguishable from neutrophils by their SSC properties and autofluorescence.
(§3) The chemotactic factor, CCL11, was used to prime eosinophils to immediately prepare for diapedesis through the endothelium by rearranging their cytoskeleton. This morphological change was detected by flow cytometry as an increase in the forward scatter properties of these cells. The effects of SO at 100 μg/mL was studied and compared to the known effect of 3 μg/mL ApoA-IV on eosinophil shape change in healthy donor PMNL samples. The pretreated samples were stimulated with serial dilutions of CCL11, and shape change was monitored by flow cytometry.
as §2, with “with” for “with 3 μg/mL ApoA-IV (positive control),”, “SO, heat, acid and base treated SO, krill oil, standard 18/12 fish oil,” for “SO,”, “Eosinophils were” for “Note, eosinophils are”, “auto-fluorescence.” for “autofluorescence.”
as §3, with “various processing treatments on SO, krill oil and standard 18/12 fish oil” for “known effect of 3 μg/mL ApoA-IV”

[4] = test system: CD11b on eosinophils (PMNL surface); test: CD11b (integrin) upregulation assay, CCL11-stimulated PMNL, flow cytometry; format: cell-based, human; settings: Example 1, 3 μg/mL ApoA-IV pretreatment 30 min
Description: (§4) PMNL samples were pretreated with 3 μg/mL ApoA-IV (positive control), 100 μg/mL SO, and formulation vehicle (negative control) for 30 minutes and incubated with serial dilutions of CCL11 for 30 minutes at 37° C. Samples were stained with anti-CD16-PE-Cy5 and anti-CD11b-PE (ICRF44) antibodies. Eosinophils were identified as CD16 negative cells. CD11b upregulation was analyzed by flow cytometry.
A precondition for eosinophil migration is upregulation of adhesion molecules such as the αmβ2 integrins (CD11b/CD18).
as §4, with “with” for “with 3 μg/mL ApoA-IV (positive control),”, “SO, heat, acid and base treated SO, krill oil, standard 18/12 fish oil,” for “SO,”

B1: Apolipoprotein A-IV (protein, UniProt P06727 21-396, looked up)
Apolipoprotein A-IV: EVSADQVATVMWDYFSQLSNNAKEAVEHLQKSELTQQLNALFQDKLGEVNTYAGDLQKKLVPFATELHERLAKDSEKLKEEIGKELEELRARLLPHANEVSQKIGDNLRELQQRLEPYADQLRTQVSTQAEQLRRQLTPYAQRMERVLRENADSLQASLRPHADELKAKIDQNVEELKGRLTPYADEFKVKIDQTVEELRRSLAPYAQDTQEKLNHQLEGLTFQMKKNAEELKARISASAEELRQRLAPLAEDVRGNLRGNTEGLQKSLAELGGHLDQQVEEFRRRVEPYGENFNKALVQQMEQLRQKLGPHAGDVEGHLSFLEKDLRDKVNSFFSTFKEKESQDKTLSLPELEQQQEQQQEQQQEQVQMLAPLES
notes: positive control protein
Question: Which “percentage of apoptotic cells (annexin Vpos)” value [1] does the source give for B1 here?
Answer: The value was 60±3.8%.

Question: And the “percentage of live cells (annexin Vneg)” value [1]?
Answer: Its value is 31.5±2.3%.

Question: What about the “Cell count in BAL fluid: Eosinophil count (Mean)” value ([2]; BAL on day 15) of the same molecule?
Answer: The value was 28220.

Question: And the “Percent eosinophil in spleen tissue (Mean)” value [2]?
Answer: The value was 2.34%.

Question: What about the “Percent eosinophil in spleen tissue (Mean)” value ([2]; listed as ApoA-IV) of the same molecule?
Answer: The value was “significantly decreased”.

Question: And the “Shape change (100% as baseline) of PMNL” value ([3]; CCL11 0.05 nM)?
Answer: The value was 100%.

Question: And the “Shape change (100% as baseline) of PMNL” value ([3]; CCL11 0.10 nM)?
Answer: Its value is 103%.

Question: And the “Shape change (100% as baseline) of PMNL” value ([3]; CCL11 0.25 nM)?
Answer: The value was 105%.

Question: What about the “Shape change (100% as baseline) of PMNL” value ([3]; CCL11 0.50 nM) of the same molecule?
Answer: Its value is 106%.

Question: And the “Shape change (100% as baseline) of PMNL” value ([3]; CCL11 0.75 nM)?
Answer: The value was 108%.

Question: And the “Shape change (100% as baseline) of PMNL” value ([3]; CCL11 1.00 nM)?
Answer: The value was 109%.

Question: And the “Shape change (100% as baseline) of PMNL” value ([3]; CCL11 2.50 nM)?
Answer: Its value is 109%.

Question: What about the “Shape change (100% as baseline) of PMNL” value ([3]; CCL11 5.00 nM) of the same molecule?
Answer: The value was 107%.

Question: And the “CB11b change (100% as baseline) on PMNL surface” value (“CB11b change (100% as baseline)” for short) ([4]; CCL11 0.01 nM)?
Answer: The value was 95%.

Question: And the “CB11b change (100% as baseline)” value ([4]; CCL11 0.50 nM)?
Answer: The value was 103%.

Question: What about the “CB11b change (100% as baseline)” value ([4]; CCL11 1.00 nM) of the same molecule?
Answer: The value was 122%.

Question: And the “CB11b change (100% as baseline)” value ([4]; CCL11 2.50 nM)?
Answer: Its value is 125%.

Question: And the “CB11b change (100% as baseline)” value ([4]; CCL11 5.00 nM)?
Answer: Its value is 125%.

Question: What about the “CB11b change (100% as baseline)” value ([4]; CCL11 10.00 nM) of the same molecule?
Answer: The value was 114%.
